From US20260297183 (published 2026) come the findings set out here.

For experiment [1], the target named is T1, huZIP12-ECD-GST (human, UniProt Q504Y0). Description: SPR.
Experiment [2] concerns the target T1, huZIP12-ECD-GST. Description: SPR, extended dissociation re-test.

B1: H3_W99H_VL-par (antibody, V domains shown)
VH: QVQLVESGGGVVQPGRSLRLSCAASGFTFSDYGMHWVRQAPGKGLEWVAYISSGGTTIYYADTVKGRFTISRDNSKNTLYLQMNSLRAEDTAVYYCARHTNLYAMDYWGQGTTVTVSS
VL: DIVLTQSPDSLAVSLGERATINCRASKSVSTSGYSYMHWYQQKPGQPPKFLIYLASNLESGVPDRFSGSGSGTDFTLTISSLQAEDVAVYYCQHSREVPYTFGGGTKVEIKR
In general, Kd refers to the constant that tells how readily two partners part at equilibrium. A low value points to tighter binding. Turning to B1, the Kd in experiment [1] is ~500 pM; in experiment [2] it was ~300 pM.

B2: H3_W99H_L1 (51B12_W99H_L1) (antibody, V domains shown)
VH: QVQLVESGGGVVQPGRSLRLSCAASGFTFSDYGMHWVRQAPGKGLEWVAYISSGGTTIYYADTVKGRFTISRDNSKNTLYLQMNSLRAEDTAVYYCARHTNLYAMDYWGQGTTVTVSS
VL: DIVLTQSPDSLAVSLGERATINCRASKSVSTQGYSYMHWYQQKPGQPPKFLIYLASNLESGVPDRFSGSGSGTDFTLTISSLQAEDVAVYYCQHSREVPYTFGGGTKVEIKR
For the molecule B2, the Kd in experiment [2] is ~300 pM.

B3: H3_W99H_L2 (antibody, V domains shown)
VH: QVQLVESGGGVVQPGRSLRLSCAASGFTFSDYGMHWVRQAPGKGLEWVAYISSGGTTIYYADTVKGRFTISRDNSKNTLYLQMNSLRAEDTAVYYCARHTNLYAMDYWGQGTTVTVSS
VL: DIVLTQSPDSLAVSLGERATINCRASKSVSTSGYSYMHWYQQKPGQPPKFLIYLASNKESGVPDRFSGSGSGTDFTLTISSLQAEDVAVYYCQHSREVPYTFGGGTKVEIKR
Regarding B3, the Kd in experiment [1] is ~500 pM; in experiment [2], ~300 pM.

B4: 51B12 parent (51B12_VH_VL-par) (antibody, V domains shown)
VH: QVQLVESGGGVVQPGRSLRLSCAASGFTFSDYGMHWVRQAPGKGLEWVAYISSGGTTIYYADTVKGRFTISRDNSKNTLYLQMNSLRAEDTAVYYCARWTNLYAMDYWGQGTTVTVSS
VL: DIVLTQSPDSLAVSLGERATINCRASKSVSTSGYSYMHWYQQKPGQPPKFLIYLASNLESGVPDRFSGSGSGTDFTLTISSLQAEDVAVYYCQHSREVPYTFGGGTKVEIKR
In experiment [2], B4 gave a Kd of 1100 pM.
